Assay results from paper PMC10693965.

Substrate: C[N+](C)(C)CCO
Assay: cells, lysate or membranes
Type: cell-based, Clonorchis sinensis
Details: ND96 (96 mM Na+), pH 7.4, 22–25°C, sodium-dependent, labelled compound

B1: CsChT (Clonorchis sinensis) (protein)
chain: MLYIPGLIAIIIFYLLILLVGFWAARKSRSNPAGTTETEDVMLAGRNIGLIVGIFTMTATWVGGGYINGTAENTFRPGQGLVWCQAPIGYAASLVLGGFFFAKRMRSLAFVTMLDPFQNKYGERMCGLLFIPALLGETFWSAAILSALGATLGVIVELDHTTSVIISACIALLYTLFGGLYSVAYTDVVQLFCIFVGLWISLPFALLNKATVPISQTWDRWKGSVEAVDAGIYVDNLLMLTFGGIPWQVYFQRVLSCRTAKQAQILSFVAAIGCLIMALPSVLIGAVGASTDWNMTGYGRAENFTIPDGEAKLVLPLVLRYLCPVWVSFVGLGAVSAAVMSSSDSSVLSAASMFARNVVKPVFWQSATERQIIWVMRASIFGVGALSCLLAICIQSIYGLWYLCSDLIYVILFPQLICVLYVRFSNTYGSLIGYILGLFVRLTSGEALLGLPALFKYPYFYDDPQDFYQRFPCKTFAMLCTLVVTIVVSYFTDLYFRKDSKRLKYDFFHCYKQRASASGSIHIGNRFNRPSIRTAKLPIQVPEVDSENADVDENSNKNSNTLDNNKPLA
  Km: 8.3 µM
